Reference: article PMC12065857 (Nature Communications, 2025)
No end group written: not given here.

Target: T1, paLptD, LptD from Pseudomonas aeruginosa (as the chain in paLptDEHis) (Pseudomonas aeruginosa, UniProt Q9I5U2 34-924)
T1 sequence: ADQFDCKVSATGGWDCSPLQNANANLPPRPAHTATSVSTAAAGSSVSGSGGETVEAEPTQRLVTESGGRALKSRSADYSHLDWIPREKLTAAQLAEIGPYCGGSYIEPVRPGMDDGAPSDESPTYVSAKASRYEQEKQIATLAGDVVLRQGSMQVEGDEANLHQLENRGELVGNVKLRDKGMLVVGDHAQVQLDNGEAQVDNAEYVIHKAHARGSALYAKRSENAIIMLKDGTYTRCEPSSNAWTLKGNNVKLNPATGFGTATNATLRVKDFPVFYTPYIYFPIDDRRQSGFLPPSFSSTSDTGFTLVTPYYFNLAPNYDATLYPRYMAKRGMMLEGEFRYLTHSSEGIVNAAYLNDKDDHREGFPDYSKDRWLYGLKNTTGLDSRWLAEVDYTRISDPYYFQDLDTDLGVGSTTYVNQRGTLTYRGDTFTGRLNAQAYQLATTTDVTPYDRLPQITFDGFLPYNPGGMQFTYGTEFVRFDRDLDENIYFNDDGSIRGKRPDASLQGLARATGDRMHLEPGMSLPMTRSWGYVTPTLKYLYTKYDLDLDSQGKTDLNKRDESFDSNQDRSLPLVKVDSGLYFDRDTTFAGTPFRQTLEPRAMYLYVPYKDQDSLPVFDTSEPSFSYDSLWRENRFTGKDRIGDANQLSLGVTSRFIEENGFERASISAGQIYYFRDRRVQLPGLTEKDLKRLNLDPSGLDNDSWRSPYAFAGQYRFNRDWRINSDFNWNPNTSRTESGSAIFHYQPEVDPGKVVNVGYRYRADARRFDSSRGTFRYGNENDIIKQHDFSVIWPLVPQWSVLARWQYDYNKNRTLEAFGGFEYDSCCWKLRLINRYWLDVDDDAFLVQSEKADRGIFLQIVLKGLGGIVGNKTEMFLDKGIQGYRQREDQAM
Test: crystal structure

B1: LptM (formerly YifL), endogenous Escherichia coli lipoprotein (natural protein)
chain: CGLKGPLYFPPADKNAPPPTKPVETQTQSTVPDKNDRATGDGPSQVNY
modifications: also: three acyl chains (R1, R2, R3) at the N-terminus
- binding result: binds
